The data set relates to Escherichia coli TOP10. The data set can be described thus: shrunken log2 fold change of peptide-encoding DNA abundance (4.5 h post-induction vs induction); higher = less antimicrobial activity (less host growth inhibition). The note with it: time post-induction: 4.5 h; library: site-saturation at positions 5, 18, 19, 20.
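Note: peptides expressed intracellularly from a pBAD plasmid library in pooled LB shake-flask culture, induced with 0.3% L-arabinose, DNA abundance read by NGS, three biological replicates, DESeq2 with apeglm shrinkage.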

Regarding RRIRARPPRLPRPRPRPIPMPRP, the “shrunken log2 fold change” value amounted to 0.0374. As to RRIRKRPPRLPRPRPRPHYIPRP, the “shrunken log2 fold change” value was -0.123. Under RRIRIRPPRLPRPRPRPRHVPRP stands -0.163; under RRIRDRPPRLPRPRPRPWPMPRP, -0.0379; under RRIRRRPPRLPRPRPRPVCEPRP, 0.935.

On to RRIRRRPPRLPRPRPRPPIEPRP, for which the “shrunken log2 fold change” value was 0.339. Regarding RRIRFRPPRLPRPRPRPKSEPRP, the “shrunken log2 fold change” value was -0.213.

For the sequence RRIRHRPPRLPRPRPRPQFHPRP, the “shrunken log2 fold change” value was -0.153. The same measure for RRIRARPPRLPRPRPRPIQVPRP: -0.215; for RRIRARPPRLPRPRPRPMEKPRP: -0.00226. The same measure for RRIRTRPPRLPRPRPRPMLDPRP: -0.0137; for RRIRWRPPRLPRPRPRPQCCPRP: -0.0128; for RRIRKRPPRLPRPRPRPGSPPRP: 0.166.

Consider RRIRSRPPRLPRPRPRPGRTPRP, for which the “shrunken log2 fold change” value was 0.0636. The same measure for RRIRHRPPRLPRPRPRPYYSPRP: -0.191; for RRIRNRPPRLPRPRPRPGNYPRP: 0.224. Under RRIRCRPPRLPRPRPRPMDEPRP stands 0.348; under RRIRRRPPRLPRPRPRPLTFPRP, 2.56. Under RRIRYRPPRLPRPRPRPNMKPRP stands -0.815. In the case of RRIRYRPPRLPRPRPRPMSEPRP, the “shrunken log2 fold change” value is 0.0461. For RRIRNRPPRLPRPRPRPFTFPRP, the “shrunken log2 fold change” value is -0.628. The same measure for RRIRPRPPRLPRPRPRPEKLPRP: 0.226.

For RRIRMRPPRLPRPRPRPDVRPRP, the “shrunken log2 fold change” value came to 0.111. Regarding RRIRGRPPRLPRPRPRPQIAPRP, the “shrunken log2 fold change” value was found to be 1.94.

With RRIRCRPPRLPRPRPRPQWGPRP, the “shrunken log2 fold change” value worked out at 0.502.

For RRIRIRPPRLPRPRPRPWYKPRP, the “shrunken log2 fold change” value is -0.689. The same measure for RRIRTRPPRLPRPRPRPTYIPRP: -0.603; for RRIRERPPRLPRPRPRPTYSPRP: -0.578; for RRIRGRPPRLPRPRPRPYLGPRP: 0.167. The same measure for RRIRARPPRLPRPRPRPFKCPRP: -0.0202; for RRIRARPPRLPRPRPRPKKQPRP: 0.0491; for RRIRHRPPRLPRPRPRPFSVPRP: -1.26. With RRIRVRPPRLPRPRPRPSSHPRP, the “shrunken log2 fold change” value was -0.344. Under RRIRKRPPRLPRPRPRPSGVPRP stands 0.005; under RRIRMRPPRLPRPRPRPCMNPRP, -0.217; under RRIRSRPPRLPRPRPRPHCYPRP, -0.302. As to RRIRMRPPRLPRPRPRPDHLPRP, the “shrunken log2 fold change” value was -0.0674.

Take RRIRFRPPRLPRPRPRPPMLPRP: the “shrunken log2 fold change” value came out at 0.638. Under RRIRPRPPRLPRPRPRPRPPPRP stands 0.831; under RRIRVRPPRLPRPRPRPRLPPRP, 0.636; under RRIRDRPPRLPRPRPRPVWRPRP, 0.0883.

As to RRIRNRPPRLPRPRPRPKNTPRP, the “shrunken log2 fold change” value was -0.462.

Take RRIRKRPPRLPRPRPRPKHSPRP: the “shrunken log2 fold change” value was -0.147. RRIRARPPRLPRPRPRPLNDPRP: the “shrunken log2 fold change” value was 0.0895.

Regarding RRIRERPPRLPRPRPRPMVRPRP, the “shrunken log2 fold change” value was -0.019. On to RRIRRRPPRLPRPRPRPSAFPRP, for which the “shrunken log2 fold change” value is 1.27.

Regarding RRIRYRPPRLPRPRPRPVDQPRP, the “shrunken log2 fold change” value was -0.611. Under RRIRWRPPRLPRPRPRPETRPRP stands 1.32; under RRIRVRPPRLPRPRPRPWVGPRP, -0.0497; under RRIRHRPPRLPRPRPRPGTEPRP, -0.0642. For the sequence RRIRPRPPRLPRPRPRPMEPPRP, the “shrunken log2 fold change” value is -0.153. On to RRIRARPPRLPRPRPRPPVKPRP, for which the “shrunken log2 fold change” value was determined as 0.404. RRIRGRPPRLPRPRPRPCNAPRP: the “shrunken log2 fold change” value turned out to be 1.45. Take RRIRWRPPRLPRPRPRPTICPRP: the “shrunken log2 fold change” value is -0.106. The same measure for RRIRYRPPRLPRPRPRPRPDPRP: -0.0672; for RRIRWRPPRLPRPRPRPGSDPRP: 0.661; for RRIRNRPPRLPRPRPRPRCIPRP: -0.256. For RRIRSRPPRLPRPRPRPGDTPRP, the “shrunken log2 fold change” value came out at 1.51.

As for RRIRYRPPRLPRPRPRPGRSPRP, the “shrunken log2 fold change” value was -0.184. Under RRIRQRPPRLPRPRPRPCHKPRP stands 0.0524; under RRIRQRPPRLPRPRPRPMSHPRP, 0.00245. The same measure for RRIRTRPPRLPRPRPRPESTPRP: -0.0383; for RRIRERPPRLPRPRPRPYSDPRP: -0.308. For the sequence RRIRGRPPRLPRPRPRPFAKPRP, the “shrunken log2 fold change” value was found to be 0.479. As for RRIRCRPPRLPRPRPRPAAIPRP, the “shrunken log2 fold change” value is 0.0247.

As for RRIRTRPPRLPRPRPRPRKQPRP, the “shrunken log2 fold change” value was determined as 0.0743.

On to RRIRPRPPRLPRPRPRPKPGPRP, for which the “shrunken log2 fold change” value was determined as 0.684. RRIRYRPPRLPRPRPRPIQSPRP: the “shrunken log2 fold change” value was -0.00206. Under RRIRHRPPRLPRPRPRPYHCPRP stands -0.316. Take RRIRTRPPRLPRPRPRPLPSPRP: the “shrunken log2 fold change” value was -0.0373. Under RRIRPRPPRLPRPRPRPHNAPRP stands -0.284. In the case of RRIRQRPPRLPRPRPRPRRMPRP, the “shrunken log2 fold change” value is 0.455. RRIRRRPPRLPRPRPRPDQMPRP: the “shrunken log2 fold change” value was -0.0181. As for RRIRVRPPRLPRPRPRPYSQPRP, the “shrunken log2 fold change” value turned out to be 0.0117. As for RRIRIRPPRLPRPRPRPPKKPRP, the “shrunken log2 fold change” value is -0.114. On to RRIRYRPPRLPRPRPRPCENPRP, for which the “shrunken log2 fold change” value was -0.215. As to RRIRYRPPRLPRPRPRPATEPRP, the “shrunken log2 fold change” value is 0.0247. Under RRIRFRPPRLPRPRPRPESGPRP stands 0.0504; under RRIRNRPPRLPRPRPRPMHLPRP, -0.179. Turning to RRIRQRPPRLPRPRPRPGSVPRP, the “shrunken log2 fold change” value turned out to be 0.241. Take RRIRDRPPRLPRPRPRPAQAPRP: the “shrunken log2 fold change” value is -0.0288. Under RRIRRRPPRLPRPRPRPTYWPRP stands -0.144; under RRIRPRPPRLPRPRPRPGYNPRP, -0.552. The same measure for RRIRERPPRLPRPRPRPHCIPRP: -0.000243; for RRIRFRPPRLPRPRPRPQIRPRP: -0.231; for RRIRQRPPRLPRPRPRPWIHPRP: -0.103.

RRIRSRPPRLPRPRPRPNWDPRP: the “shrunken log2 fold change” value was -0.315. Turning to RRIRIRPPRLPRPRPRPDMWPRP, the “shrunken log2 fold change” value was -0.271. Turning to RRIRPRPPRLPRPRPRPHFNPRP, the “shrunken log2 fold change” value is -0.433. Under RRIRKRPPRLPRPRPRPTHDPRP stands -0.101. The same measure for RRIRIRPPRLPRPRPRPLTFPRP: -0.173; for RRIRKRPPRLPRPRPRPYGMPRP: -0.284; for RRIRMRPPRLPRPRPRPDPLPRP: 0.255. Under RRIRRRPPRLPRPRPRPVFNPRP stands 0.056; under RRIRGRPPRLPRPRPRPFSQPRP, 0.194; under RRIRPRPPRLPRPRPRPAWWPRP, 0.259.

With RRIRPRPPRLPRPRPRPCTYPRP, the “shrunken log2 fold change” value was -0.253.

Turning to RRIRCRPPRLPRPRPRPTMQPRP, the “shrunken log2 fold change” value was -0.0203. Take RRIRKRPPRLPRPRPRPMPFPRP: the “shrunken log2 fold change” value was 0.0304. Take RRIRNRPPRLPRPRPRPVIPPRP: the “shrunken log2 fold change” value is -0.462. Regarding RRIRPRPPRLPRPRPRPPILPRP, the “shrunken log2 fold change” value was -0.000706.

With RRIRWRPPRLPRPRPRPNMVPRP, the “shrunken log2 fold change” value is -0.0148. Regarding RRIRFRPPRLPRPRPRPDIKPRP, the “shrunken log2 fold change” value was -0.602. Under RRIRIRPPRLPRPRPRPPSKPRP stands 0.147; under RRIRMRPPRLPRPRPRPSCKPRP, 0.0347; under RRIRLRPPRLPRPRPRPVMNPRP, -0.18. As to RRIRMRPPRLPRPRPRPDWGPRP, the “shrunken log2 fold change” value was 0.0473.

In the case of RRIRARPPRLPRPRPRPKDNPRP, the “shrunken log2 fold change” value is 0.153. Under RRIRARPPRLPRPRPRPQYFPRP stands -0.153; under RRIRQRPPRLPRPRPRPCLNPRP, -0.632.

Consider RRIRDRPPRLPRPRPRPRCEPRP, for which the “shrunken log2 fold change” value was 0.161. As to RRIRRRPPRLPRPRPRPCMPPRP, the “shrunken log2 fold change” value was -0.301.

With RRIRMRPPRLPRPRPRPNYSPRP, the “shrunken log2 fold change” value was -0.416.

As for RRIRTRPPRLPRPRPRPNDDPRP, the “shrunken log2 fold change” value was -0.519. Consider RRIRFRPPRLPRPRPRPPDYPRP, for which the “shrunken log2 fold change” value is -0.026. Under RRIRRRPPRLPRPRPRPTNKPRP stands 0.149. On to RRIRFRPPRLPRPRPRPVPIPRP, for which the “shrunken log2 fold change” value is -0.0344. In the case of RRIRRRPPRLPRPRPRPSNWPRP, the “shrunken log2 fold change” value is -0.192.

Consider RRIRERPPRLPRPRPRPLECPRP, for which the “shrunken log2 fold change” value is -0.498. Under RRIRSRPPRLPRPRPRPTKQPRP stands 0.129.

In the case of RRIRTRPPRLPRPRPRPQVTPRP, the “shrunken log2 fold change” value was 0.304. Under RRIRPRPPRLPRPRPRPFGGPRP stands 0.0321; under RRIRCRPPRLPRPRPRPTSWPRP, 0.0567; under RRIRTRPPRLPRPRPRPQYWPRP, -0.163.

Regarding RRIRIRPPRLPRPRPRPMYYPRP, the “shrunken log2 fold change” value was -0.32.
